Experimental data: article PMC5930937

Target: Cav3.1-GFP wild type (human) (UniProt O43497)
Sequence of UniProt O43497 (O43497 whole entry): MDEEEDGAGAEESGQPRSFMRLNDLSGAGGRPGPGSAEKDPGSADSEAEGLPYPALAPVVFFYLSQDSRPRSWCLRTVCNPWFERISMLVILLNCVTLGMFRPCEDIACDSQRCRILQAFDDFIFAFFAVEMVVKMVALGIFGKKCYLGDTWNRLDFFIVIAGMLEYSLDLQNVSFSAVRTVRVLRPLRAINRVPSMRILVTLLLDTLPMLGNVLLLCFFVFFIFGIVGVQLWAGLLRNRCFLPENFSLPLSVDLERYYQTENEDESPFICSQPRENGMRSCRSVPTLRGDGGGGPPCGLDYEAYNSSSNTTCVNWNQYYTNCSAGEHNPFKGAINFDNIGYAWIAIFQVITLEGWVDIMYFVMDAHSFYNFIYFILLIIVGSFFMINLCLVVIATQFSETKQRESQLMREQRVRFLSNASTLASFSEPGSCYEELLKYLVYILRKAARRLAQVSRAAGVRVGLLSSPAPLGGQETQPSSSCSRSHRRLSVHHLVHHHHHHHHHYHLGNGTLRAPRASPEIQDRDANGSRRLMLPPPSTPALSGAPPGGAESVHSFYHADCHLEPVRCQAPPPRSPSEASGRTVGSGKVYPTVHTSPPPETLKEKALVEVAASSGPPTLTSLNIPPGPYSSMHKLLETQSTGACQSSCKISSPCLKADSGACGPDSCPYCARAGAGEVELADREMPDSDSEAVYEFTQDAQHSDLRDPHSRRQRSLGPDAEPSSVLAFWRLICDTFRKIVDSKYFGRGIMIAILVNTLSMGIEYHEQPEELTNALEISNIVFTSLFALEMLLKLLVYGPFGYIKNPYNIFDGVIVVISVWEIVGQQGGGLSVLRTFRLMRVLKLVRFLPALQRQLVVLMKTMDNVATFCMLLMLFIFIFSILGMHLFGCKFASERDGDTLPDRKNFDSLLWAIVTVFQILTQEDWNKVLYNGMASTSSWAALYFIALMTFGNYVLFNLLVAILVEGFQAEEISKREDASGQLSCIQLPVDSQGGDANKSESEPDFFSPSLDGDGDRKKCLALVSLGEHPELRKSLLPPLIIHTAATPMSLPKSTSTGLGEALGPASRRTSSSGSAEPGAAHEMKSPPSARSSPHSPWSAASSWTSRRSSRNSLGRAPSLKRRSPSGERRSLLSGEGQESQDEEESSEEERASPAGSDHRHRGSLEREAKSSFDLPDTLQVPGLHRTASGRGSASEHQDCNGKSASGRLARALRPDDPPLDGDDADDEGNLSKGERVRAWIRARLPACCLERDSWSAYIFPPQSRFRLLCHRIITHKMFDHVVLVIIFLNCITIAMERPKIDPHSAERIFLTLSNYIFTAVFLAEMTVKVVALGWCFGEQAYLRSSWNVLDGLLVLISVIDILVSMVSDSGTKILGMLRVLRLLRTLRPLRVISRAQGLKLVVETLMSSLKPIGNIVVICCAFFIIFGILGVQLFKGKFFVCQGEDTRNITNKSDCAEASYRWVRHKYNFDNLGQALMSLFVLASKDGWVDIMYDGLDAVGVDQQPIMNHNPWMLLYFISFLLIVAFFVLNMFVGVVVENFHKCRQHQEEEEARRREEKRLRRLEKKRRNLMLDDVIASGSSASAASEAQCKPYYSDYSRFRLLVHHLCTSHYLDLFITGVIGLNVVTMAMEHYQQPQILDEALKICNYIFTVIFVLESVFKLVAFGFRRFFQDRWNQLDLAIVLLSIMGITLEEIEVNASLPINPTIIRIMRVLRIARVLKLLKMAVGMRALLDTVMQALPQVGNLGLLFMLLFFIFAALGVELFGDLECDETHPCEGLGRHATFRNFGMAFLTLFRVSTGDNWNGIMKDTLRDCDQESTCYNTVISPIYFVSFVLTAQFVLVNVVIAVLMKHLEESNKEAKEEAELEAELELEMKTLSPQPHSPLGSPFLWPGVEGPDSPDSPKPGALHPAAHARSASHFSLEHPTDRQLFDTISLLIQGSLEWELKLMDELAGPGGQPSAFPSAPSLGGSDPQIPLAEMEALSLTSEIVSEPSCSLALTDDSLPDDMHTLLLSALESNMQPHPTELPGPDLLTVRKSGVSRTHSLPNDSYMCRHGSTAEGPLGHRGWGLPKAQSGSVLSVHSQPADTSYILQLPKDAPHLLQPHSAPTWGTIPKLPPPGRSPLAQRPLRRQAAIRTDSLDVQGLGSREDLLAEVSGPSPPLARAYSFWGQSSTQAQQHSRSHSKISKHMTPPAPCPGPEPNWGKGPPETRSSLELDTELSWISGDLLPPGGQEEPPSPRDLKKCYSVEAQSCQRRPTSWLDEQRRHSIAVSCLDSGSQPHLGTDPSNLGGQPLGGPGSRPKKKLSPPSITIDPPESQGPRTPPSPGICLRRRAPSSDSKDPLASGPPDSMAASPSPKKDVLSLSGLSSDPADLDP

- cell surface expression of Cav3.1 (surface biotinylation, tsA-201 cells) in the presence of the cell permeant Tat-Cav3.1-CT disruptor peptide against a scrambled Tat peptide: 40%
Substance: spectrin αII (SPTAN1), tsA-201 cells, Q13813 1-2472
